From the supplement of paper PMC6755084

B1: minF1; the commonest letter at each place (parent)
chain: GAGACCGCAACTGAAAAGTTGTTATCAGAAATGGATGGGTTGAATTTCTGCACGTAGAAGCAAAAGGC

Variants of: B1
Assay: fraction ligated after 30 min (ligated reads / total reads); higher = more ligase activity
Conditions: with F1*subA RNA substrate (template-directed ligation), 42 °C
Experimental: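 Chip-synthesised pool of minF1 ligase ribozyme variants (single and double substitutions, single to quadruple deletions, bulge and P2 designed variants) was transcribed with T7 and reacted as a pool with excess substrate F1*subA for 30 min at 42 C in 50 mM EPPS pH 8.5, 25 mM MgCl2. Ligated and unligated RNAs were separated by PAGE, barcoded by RT and deep sequenced; fraction ligated = ligated reads / total reads, relative activity = FL / FL of wild-type minF1 (0.76); sequencing FL correlated with PAGE (R2 = 0.98). Sequences are the DNA template of the ribozyme.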
A27G T32G gave a fraction ligated of 0.0179. Work on A27G T36A yielded a fraction ligated of 0.0472. A27G T36C was tested, and the fraction ligated was 0.0221. For A27G T36G, the fraction ligated was 0.0614. For A27T, the fraction ligated was 0.824. Work on A27T A29C yielded a fraction ligated of 0.808. Variant A27T A29G has a fraction ligated of 0.829. With A27T A29T the fraction ligated was 0.832. In the case of A27T A30C, the fraction ligated is reported as 0.822. Variant A27T A30G has a fraction ligated of 0.851. A27T A30T showed a fraction ligated of 0.834. In the case of A27T A31C, the fraction ligated is reported as 0.844. In the case of A27T A31G, the fraction ligated is reported as 0.837. Variant A27T A31T has a fraction ligated of 0.802. In the case of A27T A35C, the fraction ligated is reported as 0.406. A27T A35G was tested, and the fraction ligated was 0.384. A27T A35T showed a fraction ligated of 0.102. A27T A43C was tested, and the fraction ligated was 0.336. For A27T A43G, the fraction ligated was 0.281. For A27T A43T, the fraction ligated was 0.412. Variant A27T A44C has a fraction ligated of 0.766. In the case of A27T A44G, the fraction ligated is reported as 0.825. Variant A27T A44T has a fraction ligated of 0.827. With A27T G28A the fraction ligated was 0.825. Work on A27T G28C yielded a fraction ligated of 0.765. Variant A27T G28T has a fraction ligated of 0.833. With A27T G33A the fraction ligated was 0.829. Variant A27T G33C has a fraction ligated of 0.822. Variant A27T G33T has a fraction ligated of 0.737. A27T G34A gave a fraction ligated of 0.285. A27T G34C showed a fraction ligated of 0.00507. Variant A27T G34T has a fraction ligated of 0.00294. With A27T G37A the fraction ligated was 0.0217. Work on A27T G37C yielded a fraction ligated of 0.00946. Work on A27T G37T yielded a fraction ligated of 0.0547. A27T G42A gave a fraction ligated of 0.698. Variant A27T G42C has a fraction ligated of 0.0569. A27T G42T showed a fraction ligated of 0.444. In the case of A27T T32A, the fraction ligated is reported as 0.0711. Work on A27T T32C yielded a fraction ligated of 0.0794. A27T T32G was tested, and the fraction ligated was 0.0604. In the case of A27T T36A, the fraction ligated is reported as 0.122. For A27T T36C, the fraction ligated was 0.0659. Variant A27T T36G has a fraction ligated of 0.16. With G28A the fraction ligated was 0.809. For G28A A29C, the fraction ligated was 0.83. With G28A A29G the fraction ligated was 0.835. In the case of G28A A29T, the fraction ligated is reported as 0.822. Work on G28A A30C yielded a fraction ligated of 0.802. G28A A30G was tested, and the fraction ligated was 0.816. G28A A30T showed a fraction ligated of 0.814. G28A A31C was tested, and the fraction ligated was 0.802. Variant G28A A31G has a fraction ligated of 0.799. Work on G28A A31T yielded a fraction ligated of 0.821. G28A A35C gave a fraction ligated of 0.0346. Work on G28A A35G yielded a fraction ligated of 0.246. Variant G28A A35T has a fraction ligated of 0.0165. For G28A A43C, the fraction ligated was 0.0816. G28A A43G was tested, and the fraction ligated was 0.0763. With G28A A43T the fraction ligated was 0.102. G28A A44C showed a fraction ligated of 0.667. With G28A A44G the fraction ligated was 0.753. Variant G28A A44T has a fraction ligated of 0.773. For G28A G33A, the fraction ligated was 0.791. With G28A G33C the fraction ligated was 0.719. G28A G33T showed a fraction ligated of 0.593. For G28A G34A, the fraction ligated was 0.0882. G28A G34C gave a fraction ligated of 0.00587. Work on G28A G34T yielded a fraction ligated of 0.00746. With G28A G37A the fraction ligated was 0.00676. For G28A G37C, the fraction ligated was 0.00899. G28A G37T gave a fraction ligated of 0.0166. Work on G28A G42A yielded a fraction ligated of 0.279. For G28A G42C, the fraction ligated was 0.0107. G28A G42T was tested, and the fraction ligated was 0.0941. G28A T32A gave a fraction ligated of 0.0454. G28A T32C was tested, and the fraction ligated was 0.0224. G28A T32G was tested, and the fraction ligated was 0.0134. Work on G28A T36A yielded a fraction ligated of 0.0244. Variant G28A T36C has a fraction ligated of 0.0146. G28A T36G gave a fraction ligated of 0.0443. For G28C, the fraction ligated was 0.82. G28C A29C showed a fraction ligated of 0.795. With G28C A29G the fraction ligated was 0.812. Work on G28C A29T yielded a fraction ligated of 0.831. G28C A29T A30T A31T gave a fraction ligated of 0.752. G28C A30C was tested, and the fraction ligated was 0.817. With G28C A30G the fraction ligated was 0.816. G28C A30T gave a fraction ligated of 0.825. With G28C A31C the fraction ligated was 0.664. Variant G28C A31G has a fraction ligated of 0.798. With G28C A31T the fraction ligated was 0.814. In the case of G28C A35C, the fraction ligated is reported as 0.0372. G28C A35G was tested, and the fraction ligated was 0.0701. G28C A35T was tested, and the fraction ligated was 0.0136. With G28C A43C the fraction ligated was 0.0652. In the case of G28C A43G, the fraction ligated is reported as 0.0597. G28C A43T showed a fraction ligated of 0.0901. For G28C A44C, the fraction ligated was 0.596. G28C A44G showed a fraction ligated of 0.674. G28C A44T showed a fraction ligated of 0.719. With G28C G33A the fraction ligated was 0.772. For G28C G33C, the fraction ligated was 0.641. G28C G33T showed a fraction ligated of 0.639. G28C G34A showed a fraction ligated of 0.109. G28C G34C was tested, and the fraction ligated was 0.00831. G28C G34T gave a fraction ligated of 0.00677. Work on G28C G37A yielded a fraction ligated of 0.0114. Work on G28C G37C yielded a fraction ligated of 0.0045. Work on G28C G37T yielded a fraction ligated of 0.0184. Variant G28C G42A has a fraction ligated of 0.264. Work on G28C G42C yielded a fraction ligated of 0.0102. For G28C G42T, the fraction ligated was 0.0849. Work on G28C T32A yielded a fraction ligated of 0.0353. With G28C T32C the fraction ligated was 0.0192. Work on G28C T32G yielded a fraction ligated of 0.0241. Variant G28C T36A has a fraction ligated of 0.0306. G28C T36C was tested, and the fraction ligated was 0.0172. G28C T36G gave a fraction ligated of 0.0324. G28T was tested, and the fraction ligated was 0.806. Variant G28T A29C has a fraction ligated of 0.784. In the case of G28T A29G, the fraction ligated is reported as 0.832. Work on G28T A29T yielded a fraction ligated of 0.829. G28T A30C showed a fraction ligated of 0.819. For G28T A30G, the fraction ligated was 0.835. G28T A30T gave a fraction ligated of 0.832. With G28T A31C the fraction ligated was 0.82. Work on G28T A31G yielded a fraction ligated of 0.82. G28T A31T showed a fraction ligated of 0.827. With G28T A35C the fraction ligated was 0.0723. G28T A35G gave a fraction ligated of 0.437. Work on G28T A35T yielded a fraction ligated of 0.051. In the case of G28T A43C, the fraction ligated is reported as 0.117. In the case of G28T A43G, the fraction ligated is reported as 0.0967. With G28T A43T the fraction ligated was 0.158. G28T A44C was tested, and the fraction ligated was 0.685. For G28T A44G, the fraction ligated was 0.759. G28T A44T gave a fraction ligated of 0.794. Variant G28T G33A has a fraction ligated of 0.814. For G28T G33C, the fraction ligated was 0.764. G28T G33T was tested, and the fraction ligated was 0.725. In the case of G28T G34A, the fraction ligated is reported as 0.141. G28T G34C gave a fraction ligated of 0.00596. G28T G34T showed a fraction ligated of 0.00519. G28T G37A gave a fraction ligated of 0.00866. For G28T G37C, the fraction ligated was 0.00638. G28T G37T was tested, and the fraction ligated was 0.0287. For G28T G42A, the fraction ligated was 0.359. G28T G42C showed a fraction ligated of 0.017. In the case of G28T G42T, the fraction ligated is reported as 0.142. G28T T32A gave a fraction ligated of 0.0381. For G28T T32C, the fraction ligated was 0.0326. Work on G28T T32G yielded a fraction ligated of 0.0263. For G28T T36A, the fraction ligated was 0.0434. G28T T36C was tested, and the fraction ligated was 0.0288. G28T T36G gave a fraction ligated of 0.0726. With A29C the fraction ligated was 0.823. A29C A30C showed a fraction ligated of 0.563. Work on A29C A30G yielded a fraction ligated of 0.827. In the case of A29C A30T, the fraction ligated is reported as 0.81. In the case of A29C A31C, the fraction ligated is reported as 0.791. For A29C A31G, the fraction ligated was 0.808. A29C A31T showed a fraction ligated of 0.842. For A29C A35C, the fraction ligated was 0.00361. With A29C A35G the fraction ligated was 0.189. With A29C A35T the fraction ligated was 0.012. Variant A29C A43C has a fraction ligated of 0.0193.
